PMC11143242 (Nature Communications, 2024)

Assays:
Settings in all cases: both partners purified
[1] = molecular target: MPXV B6 protein (Monkeypox virus, clade II …); assay: SPR; antibodies (0.5 ug/mL) […]; BIAcore 8K, 25 °C, […]; 1:1 Langmuir model
[2] = molecular target: VARV B7 (Variola virus, India-1967, UniProt Q76QZ2); assay: SPR
[3] = molecular target: CPXV CPXV199 (Cowpox virus, Brighton Red, UniProt Q8QMP6); assay: SPR
[4] = molecular target: MPXV B6 SCR1-2-3-4 (T20-N241) (Monkeypox virus, clade II …); assay: ELISA
[5] = molecular target: MPXV B6 SCR1-2-3 (T20-K185) (Monkeypox virus, clade II …); assay: ELISA
[6] = molecular target: MPXV B6 (T20-H279) (Monkeypox virus, clade II …); assay: ELISA
[7] = molecular target: MPXV B6 SCR1-2 (T20-E129) (Monkeypox virus, clade II …); assay: ELISA

B1: hMB621 (antibody, V domains shown)
VH: QVQLVQSGGGVVQPGRSLRLSCVASGFSISTYPLHWVRQAPGKGLEWVAVISHDGRNKYYADSVKGRFSISRDNSKNTVYLQMNSLRVEDTAVYYCARAYPYAFDVWGQGTLVTVSS
VL: EIVLTQSPATLSVSPGETATLSCRASQSVRNDLAWYQQKPGQAPRLLIYGASTRASGIPARFSGSGSGTEFTLTISSLQSEDFAIYYCQQYKDWPPWTFGQGTKVEIK
Kd [1]: 1.9 nM | binding result [2]: binds | binding result [3]: binds | binding result [4]: binds | binding result [5]: binds | binding result [6]: binds

B2: hMB668 (antibody, V domains shown)
VH: QVQLVQSGAEVKKPGSSVKVSCKSSGGTFSDYAINWVRQAPGQGLEWMGRILPIVGVPNYAQKFQGRVTITADKSSSTAYKEVSGLRSEDTAVYYCARRSGINGHGLDVWGQGTTVIVSS
VL: DIVMTQSPLSLPVTPGEPASISCRSSQSLLNTNGYNYLEWYLHKPGQSPQLLIYLGSHRASGVPDRFSGSGSGTDFTLKISRAEPEDVGVYYCMQTLQTQGYTFGQGTKLEIK
notes: also called MAb hMB668; source: Expi293F, transient transfection, purified (Protein A, gel filtration)
Kd [1]: 6.2 nM | binding result [2]: binds | binding result [3]: binds | binding result [7]: binds | binding result [4]: binds | binding result [5]: binds | binding result [6]: binds
